Test results: patent US20110059082A1 (BIOTEST, published 2011)

Target: T1, soluble CD4 (human, UniProt P01730 26-396, limits assumed)
T1 construct: The assay paragraph says only 'soluble CD4'
Experiment: competitive ELISA, inhibition of biotinylated mB-F5 binding to coated soluble CD4, 37 °C 2 hours
Protocol: Culture supernatants of transfectomas producing the four versions of hB-F5 were collected, and concentrated. The different antibodies were purified from culture supernatants by affinity chromatography using protein A Sepharose and assessed for their CD4 binding activity by measuring, by means of competitive ELISA, their inhibitory activities against the binding of biotinylated mB-F5 to soluble CD4 coated on microtiter plates. Incubation, time is 2 hours for 37° C. and overnight for 4° C.

Binder	Relative binding activity (% of mB-F5)
humanized B-F5 H37L/L4L (antibody, V domains shown, expressed in Sp2/0, purified on protein A; also called H37L/L4L IgG1; hB-F5) VH: EEQLVESGGGLVKPGGSLRLSCAASGFSFSDCRMYWLRQAPGKGLEWIGVISVKSENYGANYAESVRGRFTISRDDSKNTVYLQMNSLKTEDTAVYYCSASYYRYDVGAWFAYWGQGTLVTVSS VL: DIVLTQSPDSLAVSLGERATINCRASKSVSTSGYSYIYWYQQKPGQPPKLLIYLASILESGVPDRFSGSGSGTDFTLTISSLQAEDVAVYYCQHSRELPWTFGQGTKVEIK	30 % of mB-F5
humanized B-F5 H37V/L4L (antibody, V domains shown, also called hB-F5) VH: EEQLVESGGGLVKPGGSLRLSCAASGFSFSDCRMYWVRQAPGKGLEWIGVISVKSENYGANYAESVRGRFTISRDDSKNTVYLQMNSLKTEDTAVYYCSASYYRYDVGAWFAYWGQGTLVTVSS VL: DIVLTQSPDSLAVSLGERATINCRASKSVSTSGYSYIYWYQQKPGQPPKLLIYLASILESGVPDRFSGSGSGTDFTLTISSLQAEDVAVYYCQHSRELPWTFGQGTKVEIK	10 % of mB-F5
humanized B-F5 H37L/L4M IgG1 (BT061) (antibody, V domains shown, also called hB-F5; humanised B-F5) VH: EEQLVESGGGLVKPGGSLRLSCAASGFSFSDCRMYWLRQAPGKGLEWIGVISVKSENYGANYAESVRGRFTISRDDSKNTVYLQMNSLKTEDTAVYYCSASYYRYDVGAWFAYWGQGTLVTVSS VL: DIVMTQSPDSLAVSLGERATINCRASKSVSTSGYSYIYWYQQKPGQPPKLLIYLASILESGVPDRFSGSGSGTDFTLTISSLQAEDVAVYYCQHSRELPWTFGQGTKVEIK	30 % of mB-F5
humanized B-F5 H37V/L4M (antibody, V domains shown, also called hB-F5) VH: EEQLVESGGGLVKPGGSLRLSCAASGFSFSDCRMYWVRQAPGKGLEWIGVISVKSENYGANYAESVRGRFTISRDDSKNTVYLQMNSLKTEDTAVYYCSASYYRYDVGAWFAYWGQGTLVTVSS VL: DIVMTQSPDSLAVSLGERATINCRASKSVSTSGYSYIYWYQQKPGQPPKLLIYLASILESGVPDRFSGSGSGTDFTLTISSLQAEDVAVYYCQHSRELPWTFGQGTKVEIK	10 % of mB-F5
